From paper PMC3680381

Legend:
[1] = biological target: Pf-WRS catalytic domain (aminoacylation and anticodon binding domains) (Plasmodium falciparum); assay: SEC; gel filtration on Superdex200, 20 mM Tris, 100 mM NaCl, pH 7.5; oligomeric state from migration against markers (BSA, DTD)
[2] = biological target: Plasmodium falciparum cytoplasmic tryptophanyl-tRNA synthetase, full length (Plasmodium falciparum); assay: as above

| Substance | stoichiometry N [1] | stoichiometry N [2] |
| --- | --- | --- |
| Pf-WRS catalytic domain (aminoacylation and anticodon binding domains) (domain or fragment) | 2 |  |
| Plasmodium falciparum cytoplasmic tryptophanyl-tRNA synthetase, full length (enzyme) |  | 2 |
